One molecule from article PMC6599559 (2019) can be followed below.

The experiment concerns the target eEF-2 (Homo sapiens, UniProt P13639). As to the kind of experiment: kinase inhibition assay.

B1: eEF-2K 562-725 (protein)
chain: GELEAIVGLGLMYSQLPHHILADVSLKETEENKTKGFDYLLKAAEAGDRQSMILVARAFDSGQNLSPDRCQDWLEALHWYNTALEMTDCDEGGEYDGMQDEPRYMMLAREAEMLFTGGYGLEKDPQRSGDLYTQAAEAAMEAMKGRLANQYYQKAEEAWAQMEE
In general, Ki refers to a measure of affinity in units of concentration, obtained from inhibition or displacement. The low end stands for tighter binding, the high end for weaker binding. The molecule B1 came in with a Ki of around 9 µM.
